Reference: patent publication US20250346643A1, “TROPOMYOSIN KINASE RECEPTOR (TRK) LIGANDS AS THERAPEUTICS TO SUPPORT LIVER REGENERATION” (Vanderbilt University, priority 2024, published 2025)

B1: HGF: hepatocyte growth factor, complete hepatocyte mitogen used as comparator (protein, UniProt Q08048 33-495; Q08048 496-728, looked up)
Hepatocyte growth factor …: QKKRRNTLHEFKKSAKTTLTKEDPLLKIKTKKVNSADECANRCIRNRGFTFTCKAFVFDKSRKRCYWYPFNSMSSGVKKGFGHEFDLYENKDYIRNCIIGKGGSYKGTVSITKSGIKCQPWNSMIPHEHSFLPSSYRGKDLQENYCRNPRGEEGGPWCFTSNPEVRYEVCDIPQCSEVECMTCNGESYRGPMDHTESGKTCQRWDQQTPHRHKFLPERYPDKGFDDNYCRNPDGKPRPWCYTLDPDTPWEYCAIKTCAHSAVNETDVPMETTECIQGQGEGYRGTSNTIWNGIPCQRWDSQYPHKHDITPENFKCKDLRENYCRNPDGAESPWCFTTDPNIRVGYCSQIPKCDVSSGQDCYRGNGKNYMGNLSKTRSGLTCSMWDKNMEDLHRHIFWEPDASKLNKNYCRNPDDDAHGPWCYTGNPLIPWDYCPISRCEGDTTPTIVNLDHPVISCAKTKQLR
Hepatocyte growth factor beta …: VVNGIPTQTTVGWMVSLKYRNKHICGGSLIKESWVLTARQCFPARNKDLKDYEAWLGIHDVHERGEEKRKQILNISQLVYGPEGSDLVLLKLARPAILDNFVSTIDLPSYGCTIPEKTTCSIYGWGYTGLINADGLLRVAHLYIMGNEKCSQHHQGKVTLNESELCAGAEKIGSGPCEGDYGGPLICEQHKMRMVLGVIVPGRGCAIPNRPGIFVRVAYYAKWIHKVILTYKL
B2: BDNF: brain-derived neurotrophic factor, neurotrophin specific for TrkB (protein)
chain: HSDPARRGELSVCDSISEWVTAADKKTAVDMSGGTVTVLEKVPVSKGQLKQYFYETKCNPMGYTKEGCRGIDKRHWNSQCRTTQSYVRALTMDSKKRIGWRFIRIDTSCVCTLTIKRGR

Columns and labels:
[1] = tested on: primary mouse hepatocytes; test: Cell proliferation assay (CellTiter-Glo) in primary mouse hepatocytes; assay type: cell-based; conditions: for increase of primary hepatocyte proliferation: HGF 5 ng/ml, serum-free medium (FIG. 9M); for cell proliferation, comparison of NTF3, HGF, BDNF and NAS: BDNF and HGF 20 ng/ml, NAS 500 nM (FIG. 16E)
Experimental: Primary hepatocyte isolation. Pdgfrb-GFP-negative or H-2Kd mice older than 4 months were anesthetized and cannulated via the portal vein. Livers were perfused with about 25 ml of pre-warmed Liver Perfusion Medium (Gibco, Waltham, MA; 17707-038) followed by about 50 ml Liver Digestion Medium (Gibco, Waltham, MA; 17703-034). Liver capsule was gently teased apart with tweezers and hepatocytes released. Cells were taken up in Hepatocyte Wash Buffer (Gibco, Waltham, MA; 17704-024) and filtered through 100 μm mesh. Cells were then centrifuged for 2 min at 100 g, 4° C. and cell pellet resuspended in ice cold 10 ml DMEM (Gibco, Waltham, MA; 11885-084)/5% FBS. 10 ml of ice cold 100% Percoll®/PBS (GE HealthCare, Chicago, IL; GE17-0891-01) was added for gradient purification and cells centrifuged for 10 min at 200 g, 4° C. Cell pellet was resuspended with 20 ml DMEM/5% FBS and centrifuged for 2 min at 100 g, 4° C. 1-2×10^3 hepatocytes were plated on collagen-coated 96-well plates in DMEM/5% FBS/Pen/Strep. Rat tail collagen I (Gibco, Waltham, MA; A1048301) was used for coating. Cell culture media was changed 3 hours after plating with either serum-free William's E media (Gibco, Waltham, MA) containing Pen/Strep (Gibco, Waltham, MA) or DMEM/5% FBS/Pen/Strep. NTF3 (STEMCELL technologies, Vancouver, Canada) was added 1 day after plating at a final concentration of 20 ng/ml and primary hepatocytes cultured for 3 days with NTF3 until analysis.
Cell proliferation assays. Primary mouse hepatocytes, HepG2 or AML 12 cells were grown in opaque-walled 96-well plates. NTF3 (final concentration 20 ng/ml) (STEMCELL Technologies, Vancouver, Canada; cat. 78074) and/or Loxo-195 (final concentration 5 nM) (Selleckchem, Houston, TX; S8636) were added into complete growth media without L-glutamine. Primary mouse hepatocytes were also grown in serum-free William's E media without supplements. Cells were analyzed by CellTiter-Glo® (Promega G7570, Madison, WI) which detects the number of viable cells on day 0 to day 5 by on detection systems GloMax® (Promega) or Bioteck Synergy H1 (Agilent, Santa Clara, CA). Mouse recombinant HGF (Abcam, Cambridge, UK; ab281797) was added to cell culture media at a final concentration 5 ng/ml. TRKB inhibitor ANA-12 (Selleckchem, Houston, TX; S7745) was diluted in DMSO (10 mM stock solution) and added to cell culture media at a final concentration of 10 nM.
Primary mouse hepatocyte isolation. Mice were anesthetized and cannulated via the portal vein. Livers were perfused with ˜25 ml of prewarmed liver perfusion medium (Gibco, Waltham, MA; 17707-038) followed by ˜50 ml of liver digestion medium (Gibco, Waltham, MA; 17703-034). The liver capsule was gently teased apart with tweezers, and hepatocytes were released. Cells were taken up in Hepatocyte Wash Buffer (Gibco, Waltham, MA; 17704-024) and filtered through a 100-μm mesh. Cells were then centrifuged for 2 min at 100 g, 4° C., and the cell pellet was resuspended in 10 ml of ice-cold DMEM (Gibco, Waltham, MA; 11885-084)/5% FBS. […] of ice-cold 100% Percoll®/PBS (GE HealthCare, Chicago, IL; GE17-0891-01) were added for gradient purification, and cells were centrifuged for 10 min at 200 g, 4° C. The cell pellet was resuspended with 20 ml of DMEM/5% FBS and centrifuged for 2 min at 100 g, 4° C. A total of 1×10^3 to 2×10^3 hepatocytes were plated on collagen-coated 96-well plates in DMEM/5% FBS/Pen/Strep. Rat tail collagen I (Gibco, Waltham, MA; A1048301) was used for coating. Cell culture media were changed 3 hours after plating with either serum-free William's E media (Gibco, Waltham, MA) containing Pen/Strep (Gibco, Waltham, MA) or DMEM/5% FBS/Pen/Strep. […]

[2] = tested on: mouse passaged primary human hepatocytes; test: EdU incorporation in mouse passaged primary human hepatocytes (mpPHH); assay type: cell-based; conditions: 20 ng/ml each, 4 hours (FIG. 19E-F)
Experimental: Mouse passaged primary human hepatocytes. Mouse-passaged primary human hepatocytes (mpPHHs) were collected as previously described (Michailidis et al., Proc Natl Acad Sci USA. 2020; 117(3): 1678-1688) and cultured in hepatocyte culture media (CC-3198, Lonza, Basel, Switzerland) in collagen-coated chamber slides. Three days before treatment, mpPHH were incubated in William's E media (with L-glutamine). Vehicle, NTF3, BDNF, or HGF (20 ng/ml each) were diluted in William's E (without L-glutamine) and EdU (EdU Cell Proliferation kit, Alexa Flour 555, Thermo Fisher Scientific, Waltham, MA; C10638) was added to each well. mpPHH were incubated for 4 hours and the experiment terminated by fixing the mpPHH in 4% paraformaldehyde/PFA and permeablized with Triton X-100. Click-iT™ EdU staining was then performed according to the manufacturer's instructions. mpPHH were mounted with Flouromount G and imaged with Nikon confocal microscope. 5-15 images per treatment per experiment were randomly taken and EdU positive nuclei quantified.
EdU incorporation and imaging in HDO and mpPHH. A chamber slide was pre-chilled on ice and coated with Matrigel®. Chamber slide was then incubated for 3 min at 37° C. to solidify and organoids plated in 0.02% Matrigel®/complete media into coated chamber slides. Organoids were grown in complete organoid growth media (OGM) for approximately 4 days followed by incubation in organoid differentiation media (ODM) for another 4 days. Organoids were changed to William's E medium 1 day prior to experiment. Vehicle or NTF3, BDNF, HGF (20 ng/ml final concentration each) or Taletrectinib (Fisher Scientific, Waltham, MA; 502030245, final concentration 10 nM) were diluted in William's E (without L-glutamine) and added to organoids. CLICK-iT™ EdU (EdU final concentration […] incubated together with the vehicle, NTF3, BDNF or HGF). […] Five to fifteen images of random high-power fields were obtained per experiment per treatment and EdU+/Hoechst 33342+ nuclei versus all Hoechst 33342+ nuclei quantified.

Row | Molecule | synergism with HGF on primary hepatocyte proliferation ([1]; NTF3 20 ng/ml + HGF 5 ng/ml, serum-free medium (FIG. 9N)) | increase of primary hepatocyte proliferation ([1]; NTF3 20 ng/ml) | cell proliferation vs control-treated hepatocytes ([1]; NTF3 20 ng/ml, serum-free and serum-containing media (FIG. 8F, 9D)) | EdU+ nuclei compared to vehicle only [2] | cell proliferation, comparison of NTF3, HGF, BDNF and NAS [1] | cell proliferation ([1]; BDNF 20 ng/ml (FIG. 16C))
1 | NTF3: neurotrophin-3, recombinant protein; HSC-derived hepatocyte mitogen, ligand of TRKA, TRKB, TRKC | no synergistic effects | 1.5 fold | significantly higher | increased EdU+ nuclei | – | –
2 | B1 | – | 2.6 fold | – | increased EdU+ nuclei | more potent | –
3 | B2 | – | – | – | increased EdU+ nuclei | induce proliferation to a similar extent | significantly induced proliferation
